# Reference: patent publication US20260000736A1, “PURIFIED LACTOFERRIN COMPOSITIONS AND METHODS OF USE” (Lactea Therapeutics LLC, priority 2023, published 2026)
# B1: Lab-grade standard lactoferrin: commercially available lab-grade standard lactoferrin (protein, UniProt P24627 20-708, looked up)
# Lactotransferrin: APRKNVRWCTISQPEWFKCRRWQWRMKKLGAPSITCVRRAFALECIRAIAEKKADAVTLDGGMVFEAGRDPYKLRPVAAEIYGTKESPQTHYYAVAVVKKGSNFQLDQLQGRKSCHTGLGRSAGWIIPMGILRPYLSWTESLEPLQGAVAKFFSASCVPCIDRQAYPNLCQLCKGEGENQCACSSREPYFGYSGAFKCLQDGAGDVAFVKETTVFENLPEKADRDQYELLCLNNSRAPVDAFKECHLAQVPSHAVVARSVDGKEDLIWKLLSKAQEKFGKNKSRSFQLFGSPPGQRDLLFKDSALGFLRIPSKVDSALYLGSRYLTTLKNLRETAEEVKARYTRVVWCAVGPEEQKKCQQWSQQSGQNVTCATASTTDDCIVLVLKGEADALNLDGGYIYTAGKCGLVPVLAENRKSSKHSSLDCVLRPTEGYLAVAVVKKANEGLTWNSLKDKKSCHTAVDRTAGWNIPMGLIVNQTGSCAFDEFFSQSCAPGADPKSRLCALCAGDDQGLDKCVPNSKEKYYGYTGAFRCLAEDVGDVAFVKNDTVWENTNGESTADWAKNLNREDFRLLCLDGTRKPVTEAQSCHLAVAPNHAVVSRSDRAAHVKQVLLHQQALFGKNGKNCPDKFCLFKSETKNLLFNDNTECLAKLGGRPTYEEYLGTEYVTAIANLKKCSTSPLLEACAFLTR
# B2: heat-treated API-E2 Lactoferrin: API-E2 Lactoferrin heated across a range of 50-100° C. (protein, UniProt P24627 20-708, looked up)
# Lactotransferrin: APRKNVRWCTISQPEWFKCRRWQWRMKKLGAPSITCVRRAFALECIRAIAEKKADAVTLDGGMVFEAGRDPYKLRPVAAEIYGTKESPQTHYYAVAVVKKGSNFQLDQLQGRKSCHTGLGRSAGWIIPMGILRPYLSWTESLEPLQGAVAKFFSASCVPCIDRQAYPNLCQLCKGEGENQCACSSREPYFGYSGAFKCLQDGAGDVAFVKETTVFENLPEKADRDQYELLCLNNSRAPVDAFKECHLAQVPSHAVVARSVDGKEDLIWKLLSKAQEKFGKNKSRSFQLFGSPPGQRDLLFKDSALGFLRIPSKVDSALYLGSRYLTTLKNLRETAEEVKARYTRVVWCAVGPEEQKKCQQWSQQSGQNVTCATASTTDDCIVLVLKGEADALNLDGGYIYTAGKCGLVPVLAENRKSSKHSSLDCVLRPTEGYLAVAVVKKANEGLTWNSLKDKKSCHTAVDRTAGWNIPMGLIVNQTGSCAFDEFFSQSCAPGADPKSRLCALCAGDDQGLDKCVPNSKEKYYGYTGAFRCLAEDVGDVAFVKNDTVWENTNGESTADWAKNLNREDFRLLCLDGTRKPVTEAQSCHLAVAPNHAVVSRSDRAAHVKQVLLHQQALFGKNGKNCPDKFCLFKSETKNLLFNDNTECLAKLGGRPTYEEYLGTEYVTAIANLKKCSTSPLLEACAFLTR
# modifications: heat-treated
# Columns and labels:
# [1] = Differential Scanning Calorimetry (DSC) of apolactoferrin and hololactoferrin forms; format: physicochemical
# Description: Di[…] Calorimetry (DSC) was used to assess the hololactoferrin and apolactoferrin forms through monitoring unfolding temperatures of lactoferrin samples using a nanoDSC (TA Instruments, Lindon, UT) according to standard DSC protocols known to those of skill in the art (e.g., see Hinz et al “M[…] […] OF […] ON […] DI[…] CALORIMETRY”; herein incorporated by reference for all purposes.
# API-E2 Lactoferrin (10 mg/mL), produced as described herein, was assessed by DSC. […] The lack of other peaks indicates the lack of contaminants and impurities and can assess API-E2 as ˜100%. […] Additionally, the lack of other peaks also indicated the purity of API-E2 Lactoferrin. […] The API-E2 hololactoferrin peak has a Tm of 88.38+/−0.8 C and a delta H of 632.7+/−7.2 kJ/mol. The hololactoferrin natively accounted for on average 8.74+/−1.39% of the total API-E2 lactoferrin with apolactoferrin accounting for the rest in the samples tested. However, the hololactoferrin percentage can be naturally variable. The API-E2 was calculated by this technique to contain virtually 100% pure lactoferrin.
# The assay was also performed with heat-treated API-E2 Lactoferrin. API-E2 Lactoferrin was heated across a range of 50-100° C.
# Lab-grade standard lactoferrin and a commercially available supplement-grade lactoferrin were also assessed by DSC under the conditions used to assess API-E2 above.
# [2] = system: ECM of primary buccal cells; test: ECM association by immunofluorescence in primary buccal cells; format: cell-based; settings: 100 µg/mL for 1 hr at 37 C
# Description: Primary buccal cells were next cultured according to a standard protocol (e.g., see Russo et al. Cytotechnology. 2016 October; 68(5): 2105-2114; herein incorporated by reference for all purposes). […] Immunofluorescence imaging was performed as previously described.
Molecule,"Tm, Apolactoferrin peak ([1]; 10 mg/mL)","Tm, Hololactoferrin peak ([1]; 10 mg/mL)",estimated ratio of the apolactoferrin to hololactoferrin peak ([1]; conditions as for API-E2),ECM association of Lactoferrin (immunofluorescence imaging) [2],detectable apolactoferrin and hololactoferrin DSC peaks ([1]; conditions as for API-E2)
B1,55 C,85 C,nearly equal,only limited ECM association,
B2,,,,,loss in both detectable peaks
